Laboratory results from patent US11156615B2 (priority 2015, dated 2021).
Residue numbers refer to the chain shown, from its start.

B1: ttGGBP17C.5: affinity-tuning mutant, 17C background, SEQ ID NO: 70 (protein)
chain: MKQLNIGVAIYKFDATCMTGVRNAMTAEAQGKAKLNMVDSQNSQPTQNDQVDLFITKKMNALAINPVDRTAAGTIIDKAKQANIPVVFFNREPLPEDMKKWDKVYYVGAKAEQSGILQGQIMADYWKAHPEADKNHDGVMQYVMLMGQPGHQDAILRTQYSIQTVKDAGIKVQELAKDYANWDRVTAHDKMAAWLSSFGDKIEAVFANNDDMALGAIEALKSAGYFTGNKYIPVVGVDATAPGIQAIKDGTLLGTVLNDAKNQAKATFNIAYELAQGITPTKDNIGYDITDGKYVWIPYKKITKDNISDAEQGGSHHHHHH
modifications: ttGGBP17C.5 (affinity-tuning mutant, 17C background (Table 6) with signal peptide replaced with M and GGSHHHHHH at C-terminus)
B2: ttGGBP182C.9: affinity-tuning mutant, 182C background, SEQ ID NO: 103 (protein)
chain: B1 chain with A15N, C17F, W182C
modifications: ttGGBP182C.9 (affinity-tuning mutant, 182C background (Table 6) with signal peptide replaced with M and GGSHHHHHH at C-terminus)
B3: ttGGBP182C.6: affinity-tuning mutant, 182C background, SEQ ID NO: 100 (protein)
chain: B1 chain with A15D, T16N, C17F, W182C, D211A
modifications: ttGGBP182C.6 (affinity-tuning mutant, 182C background (Table 6) with signal peptide replaced with M and GGSHHHHHH at C-terminus)
B4: ttGGBP17C.9: affinity-tuning mutant, 17C background, SEQ ID NO: 74 (protein)
chain: B1 chain with A15D, T16S
modifications: ttGGBP17C.9 (affinity-tuning mutant, 17C background (Table 6) with signal peptide replaced with M and GGSHHHHHH at C-terminus)
B5: ttGGBP182C.5: affinity-tuning mutant, 182C background, SEQ ID NO: 99 (protein)
chain: B1 chain with A15D, C17F, R69P, Q152P, W182C
modifications: ttGGBP182C.5 (affinity-tuning mutant, 182C background (Table 6) with signal peptide replaced with M and GGSHHHHHH at C-terminus)
B6: ttGGBP182C.8: affinity-tuning mutant, 182C background, SEQ ID NO: 102 (protein)
chain: B1 chain with A15D, C17F, R91K, Q148K, W182C
modifications: ttGGBP182C.8 (affinity-tuning mutant, 182C background (Table 6) with signal peptide replaced with M and GGSHHHHHH at C-terminus)
B7: ttGGBP17C.1: affinity-tuning mutant, 17C background, SEQ ID NO: 66 (protein)
chain: B1 chain with A15D, R91K, Q148E
modifications: ttGGBP17C.1 (affinity-tuning mutant, 17C background (Table 6) with signal peptide replaced with M and GGSHHHHHH at C-terminus)
B8: ttGGBP17C.25: affinity-tuning mutant, 17C background, SEQ ID NO: 83 (protein)
chain: B1 chain with A15D, A260K
modifications: ttGGBP17C.25 (affinity-tuning mutant, 17C background (Table 6) with signal peptide replaced with M and GGSHHHHHH at C-terminus)
B9: ttGGBP17C.10: affinity-tuning mutant, 17C background, SEQ ID NO: 75 (protein)
chain: B1 chain with A15D, G20A
modifications: ttGGBP17C.10 (affinity-tuning mutant, 17C background (Table 6) with signal peptide replaced with M and GGSHHHHHH at C-terminus)
B10: ttGGBP17C.29: affinity-tuning mutant, 17C background, SEQ ID NO: 87 (protein)
chain: B1 chain with A15D, A260S
modifications: ttGGBP17C.29 (affinity-tuning mutant, 17C background (Table 6) with signal peptide replaced with M and GGSHHHHHH at C-terminus)

experiment: Glucose binding: isothermal fluorescence titrations, ratiometric (appKd) and monochromatic (trueKd) fits; conditions: read-out: Glucose appKd; Acrylodan conjugate; dichromatic ratiometry; room temperature
Description: 2 For a single glucose-binding site, the fractional saturation is given by
[formula] where ^apoIλ2 and ^satIλ2 are the emission intensities of the monochromatic signal at wavelength λ2 of the ligand-free and ligand-bound protein, respectively.

Kd [mM]	Molecule
6	B1
75.1	B2
21.6	B3
0.2	B4
7.5	B5
28.7	B6

same assay, conditions: read-out: Glucose appKd; Badan conjugate; dichromatic ratiometry; room temperature

Kd [mM]	Molecule
16	B1
0.6	B7
3.2	B8

same assay, conditions: read-out: Glucose trueKd; Acrylodan conjugate; monochromatic titration curves; room temperature

Kd [mM]	Molecule
6	B1
76.4	B2
27.6	B3
0.2	B4
8.8	B5
44.2	B6

same assay, conditions: read-out: Glucose trueKd; Badan conjugate; monochromatic titration curves; room temperature

Kd [mM]	Molecule
16	B1
0.8	B7
3.7	B8

experiment: Thermostability: mid-point thermal denaturation temperature (Tm) from temperature-dependent fluorescence (Roche LightCycler); type: physicochemical; conditions: Acrylodan conjugate; apo-protein
Description: Protein (un)folding is monitored by binding of SYPRO to the unfolded state as a function of temperature. Fluorescence intensity increases upon binding of SYPRO by the unfolded state.
Panels A-C: ttGBP182C.2.0-Imm0; Panels D-F: ttGBP182C.2.0-Imm1 (see FIG. 13). (A) Solution (Tm=347.6K). (B) Immobilized on Nickel-nitriloacetic acid (Ni-NTA) beads (Tm=346.7K). (C) Reconstituted, desiccated Ni-NTA beads (Tm=347.6K). (D) Fluorescence response of ttGGBP5.2 Imm1 immobilized on NHS-functionalized agarose beads. Data was collected on a Roche LightCycler real-time PCS instrument, recording emission intensities at 488 nm and 510 nm as a function of temperature in a 384-well microtiter plate. […] Temperature melts of twelve different wells. Apo protein thermostability as reported by the denaturation mid-point temperature is 349 K, similar to the protein free in solution. […] (F) Representative Langmuir ligand-binding curve extracted from the three-dimensional data.
Temperatures were advanced in 1K steps. […] Under these experimental photobleaching was not observed.

Molecule	apoTm [K]
B1	348
B9	351
B2	343
B3	345
B5	349
B6	346

same assay, conditions: Badan conjugate; apo-protein

Molecule	apoTm [K]
B1	345
B10	343

experiment: Glucose-dependent fluorescence emission intensity spectra of conjugates (Nanodrop3300); type: biochemical; conditions: Acrylodan conjugate of ttGGBP or ecGGBP (Ec) cysteine mutant; Nanodrop3300
Description: Semi-synthetic FRSs were engineered by site-specifically attaching thiol-reactive, environmentally sensitive fluorophores that respond to ligand-mediated conformational changes. Identification of FRS candidates that are useful for sensing applications comprises three steps: • 1. Cysteine scan. Mutant glucose-binding proteins containing single cysteines are constructed for site-specific attachment of thiol-reactive fluorophores. […] Candidate positions fall into three classes: endosteric, replacing a residue that contacts the ligand directly; peristeric, located at the rim of the binding site; allosteric (Marvin et al. 1997 Proc Natl Acad Sci USA, 94, 4366-71; Marvin 1998 J Am Chem Soc, 120, 7-11), located outside the binding site at sites that undergo local structural changes in concert with the hinge-bending motion. • 2. Fluorophore screening. Thiol-reactive, environmentally sensitive fluorophores are attached to each cysteine mutant prepared in step 1. • 3. Evaluation of the glucose-mediated change of all the fluorescent conjugates prepared in step 2. Responses to ligand binding in which there is both a change in fluorescence emission intensity and spectral shape was essential for chemometric applications, because such changes enable ratiometric measurements. Changes in spectral shape typically are accompanied by a shift in the wavelength of the emission intensity maxima. Three classes of fluorescent responses are possible: • i. No response. • ii. Monochromatic response (emission intensity increases or decreases without a change in spectral shape) • iii.

Molecule	Type of fluorescence response to glucose
W183C (Ec)	r (b) (r (b), ratiometric (bathochromic shift))

same assay, conditions: Acrylodan conjugate of ttGGBP.17C mutant; Nanodrop3300

Molecule	Type of fluorescence response to glucose
B1	r(h) (r(h), ratiometric (hypsochromic shift))
B9	d (d, intensity decrease only)
B7	d (d, intensity decrease only)
B4	r(h) (r(h), ratiometric (hypsochromic shift))

same assay, conditions: Badan conjugate of ttGGBP.17C mutant; Nanodrop3300

Molecule	Type of fluorescence response to glucose
B1	r(h) (r(h), ratiometric (hypsochromic shift))
B7	r(h) (r(h), ratiometric (hypsochromic shift))
B8	i (i, intensity increase only)
B10	i (i, intensity increase only)

same assay, conditions: isochromic / hypsochromic / bathochromic

direction of emission wavelength shift upon glucose binding	Molecule
bathochromic	ecGGBP W183C⋅Acrylodan: Acrylodan attached to W183C mutant of E. coli GGBP (SEQ ID NO: 32)

experiment: Galactose binding: isothermal fluorescence titrations of conjugates; parameters: key to Galactose trueKd: nb, no bonding; conditions: Acrylodan conjugate; S > 1, selective for glucose

S, selectivity = trueKd(galactose)/trueKd(glucose)	Molecule
3.7	B2
2.9	B3
0.8	B5
5.8	B6

same assay, conditions: Badan conjugate; monochromatic titration curves; room temperature

Galactose trueKd	Molecule
nb^e	B8

same assay, conditions: read-out: Galactose trueKd; Acrylodan conjugate; monochromatic titration curves; room temperature

Kd [mM]	Molecule
81	B3
7.4	B5
